Source: PMC6779512 (Proteins, 2019)

B1: Spa47 E267A (enzyme)
chain: MSYTKLLTQLSFPNRISGPILETSLSDVSIGEICNIQAGIESNEIVARAQVVGFHDEKTILSLIGNSRGLSRQTLIKPTAQFLHTQVGRGLLGAVVNPLGEVTDKFAVTDNSEILYRPVDNAPPLYSERAAIEKPFLTGIKVIDSLLTCGEGQRMGIFASAGCGKTFLMNMLIEHSGADIYVIGLIGERGREVTETVDYLKNSEKKSRCVLVYATSDYSSVDRCNAAYIATAIAEFFRTEGHKVALFIDSLTRYARALRDVALAAGASPARRGYPVSVFDSLPRLLERPGKLKAGGSITAFYTVLLEDDDFADPLAEEVRSILDGHIYLSRNLAQKGQFPAIDSLKSISRVFTQVVDEKHRIMAAAFRELLSEIEELRTIIDFGEYKPGENASQDKIYNKISVVESFLKQDYRLGFTYEQTMELIGETIR
B2: Spa47 E267R (enzyme)
chain: MSYTKLLTQLSFPNRISGPILETSLSDVSIGEICNIQAGIESNEIVARAQVVGFHDEKTILSLIGNSRGLSRQTLIKPTAQFLHTQVGRGLLGAVVNPLGEVTDKFAVTDNSEILYRPVDNAPPLYSERAAIEKPFLTGIKVIDSLLTCGEGQRMGIFASAGCGKTFLMNMLIEHSGADIYVIGLIGERGREVTETVDYLKNSEKKSRCVLVYATSDYSSVDRCNAAYIATAIAEFFRTEGHKVALFIDSLTRYARALRDVALAAGRSPARRGYPVSVFDSLPRLLERPGKLKAGGSITAFYTVLLEDDDFADPLAEEVRSILDGHIYLSRNLAQKGQFPAIDSLKSISRVFTQVVDEKHRIMAAAFRELLSEIEELRTIIDFGEYKPGENASQDKIYNKISVVESFLKQDYRLGFTYEQTMELIGETIR

Molecular target: the molecule itself
Assay: SEC

Row | Protein | binding result
1 | B1 | binds
2 | B2 | binds
